Results as given in the supplement of paper PMC9233669.
This sample holds only a part of the variants without activity.

Legend:
[1] = test system: biotinyl-Ile-oxazolone; experiment: self-aminoacylation, catalytic enhancement (BIO) (fold over background); higher = more active; k-Seq, kA / k0A0; sequences stand for … in GGGAAUGGAUCCACAUCUACGAAUUC…UUCACUGCAGACUUGACGAAGCUG
Outline: (§1)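 Catalytic enhancement equals the median kA over the uncatalyzed rate, the latter read from the low-activity peak of a bimodal Gaussian fit. Values of kA came from fitting each sequence's fraction reacted to a pseudo-first-order model, with 1000 bootstraps. Reacted RNA was captured with streptavidin and quantified by triplicate qPCR and Illumina sequencing after 90 minutes at room temperature with 2–1250 μM biotinyl-aminoacyl-oxazolone and 0.43 μM mutagenized RNA pools bearing a 21-nt variable region.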

[2] = test system: biotinyl-Leu-oxazolone; experiment: self-aminoacylation, catalytic enhancement (BLO) (fold over background); higher = more active; k-Seq, kA / k0A0; sequences stand for … in GGGAAUGGAUCCACAUCUACGAAUUC…UUCACUGCAGACUUGACGAAGCUG
Outline: as §1

[3] = test system: biotinyl-Trp-oxazolone; experiment: self-aminoacylation, catalytic enhancement (BWO) (fold over background); higher = more active; k-Seq, kA / k0A0; sequences stand for … in GGGAAUGGAUCCACAUCUACGAAUUC…UUCACUGCAGACUUGACGAAGCUG
Outline: as §1

[4] = test system: biotinyl-Val-oxazolone; experiment: self-aminoacylation, catalytic enhancement (BVO) (fold over background); higher = more active; k-Seq, kA / k0A0; sequences stand for … in GGGAAUGGAUCCACAUCUACGAAUUC…UUCACUGCAGACUUGACGAAGCUG
Outline: as §1

[5] = test system: biotinyl-Phe-oxazolone; experiment: self-aminoacylation, catalytic enhancement (BFO) (fold over background); higher = more active; k-Seq, kA / k0A0; sequences stand for … in GGGAAUGGAUCCACAUCUACGAAUUC…UUCACUGCAGACUUGACGAAGCUG
Outline: as §1

[6] = test system: biotinyl-Met-oxazolone; experiment: self-aminoacylation, catalytic enhancement (BMO) (fold over background); higher = more active; k-Seq, kA / k0A0; sequences stand for … in GGGAAUGGAUCCACAUCUACGAAUUC…UUCACUGCAGACUUGACGAAGCUG
Outline: as §1

## AGUACCCUGGUCAUAGAGUGA [Fam2.1 aminoacylation ribozyme variant]
[1]
  self-aminoacylation: 2.33
[2]
  self-aminoacylation: 4.1
[3]
  self-aminoacylation: 4.67
[4]
  self-aminoacylation: 2.48
[5]
  self-aminoacylation: 15.4
[6]
  self-aminoacylation: 4.15

## AAGUAUGCUAAUAGCCGCAAG [Fam3.1 aminoacylation ribozyme variant]
[1]
  self-aminoacylation: 1.49
[2]
  self-aminoacylation: 1.16
[3]
  self-aminoacylation: 2.58
[4]
  self-aminoacylation: 1.05
[5]
  self-aminoacylation: 5.73
[6]
  self-aminoacylation: 1.06

## AAGUUUGCCAAUAGUUGCAAG [Fam3.1 aminoacylation ribozyme variant]
[1]
  self-aminoacylation: 0.948
[2]
  self-aminoacylation: 0.958
[3]
  self-aminoacylation: 0.808
[4]
  self-aminoacylation: 0.866
[5]
  self-aminoacylation: 1.39
[6]
  self-aminoacylation: 0.895

## AUUCACCCAGGUUAUCGGGUG [Fam2.2 aminoacylation ribozyme variant]
[1]
  self-aminoacylation: 2.77
[2]
  self-aminoacylation: 4.62
[3]
  self-aminoacylation: 4.83
[4]
  self-aminoacylation: 3.33
[5]
  self-aminoacylation: 35.3
[6]
  self-aminoacylation: 4.79

## UUCACCCUGGUCAUCGAGUGA [Fam2.1 aminoacylation ribozyme variant]
[1]
  self-aminoacylation: 5.88
[2]
  self-aminoacylation: 10.6
[3]
  self-aminoacylation: 12.7
[4]
  self-aminoacylation: 6.29
[5]
  self-aminoacylation: 13.2
[6]
  self-aminoacylation: 11.3

## AUUCACGUAGGUCAUUGGGUG [Fam2.2 aminoacylation ribozyme variant]
[1]
  self-aminoacylation: 3.18
[2]
  self-aminoacylation: 5.11
[3]
  self-aminoacylation: 4
[4]
  self-aminoacylation: 4
[5]
  self-aminoacylation: 25.2
[6]
  self-aminoacylation: 4.43

## AUCCACCAAGGUCAUCGGGUG [Fam2.2 aminoacylation ribozyme variant]
[1]
  self-aminoacylation: 5.16
[2]
  self-aminoacylation: 10.1
[3]
  self-aminoacylation: 7.83
[4]
  self-aminoacylation: 6.37
[5]
  self-aminoacylation: 68.2
[6]
  self-aminoacylation: 9.18

## CCACACUACAAGCGAUCGGUC [Fam1B.1 aminoacylation ribozyme variant]
[1]
  self-aminoacylation: 1.09
[2]
  self-aminoacylation: 1.24
[3]
  self-aminoacylation: 1.03
[4]
  self-aminoacylation: 1.29
[5]
  self-aminoacylation: 0.866
[6]
  self-aminoacylation: 0.977

## AGGAUUGCUAAUAGUCGCAAG [Fam3.1 aminoacylation ribozyme variant]
[1]
  self-aminoacylation: 1.62
[2]
  self-aminoacylation: 1.66
[3]
  self-aminoacylation: 2.52
[4]
  self-aminoacylation: 1.88
[5]
  self-aminoacylation: 2.92
[6]
  self-aminoacylation: 1.52

## AUUACCCUGGUCAUCCAGUUA [Fam2.1 aminoacylation ribozyme variant]
[1]
  self-aminoacylation: 0.875
[2]
  self-aminoacylation: 0.855
[3]
  self-aminoacylation: 0.433
[4]
  self-aminoacylation: 1.08
[5]
  self-aminoacylation: 0.726
[6]
  self-aminoacylation: 0.914

## CCACACUUCAGGCAAUCGGUA [Fam1B.1 aminoacylation ribozyme variant]
[1]
  self-aminoacylation: 1.24
[2]
  self-aminoacylation: 1.23
[3]
  self-aminoacylation: 1.04
[4]
  self-aminoacylation: 1.33
[5]
  self-aminoacylation: 1.97
[6]
  self-aminoacylation: 1.43

## AUUCACCUAUGUCAUCGGGUA [Fam2.2 aminoacylation ribozyme variant]
[1]
  self-aminoacylation: 1.55
[2]
  self-aminoacylation: 2.41
[3]
  self-aminoacylation: 1.89
[4]
  self-aminoacylation: 1.79
[5]
  self-aminoacylation: 1.14
[6]
  self-aminoacylation: 1.96

## CGACUUCAAAGAAUCGGUCUG [Fam1A.1 aminoacylation ribozyme variant]
[1]
  self-aminoacylation: 1.31
[2]
  self-aminoacylation: 1.66
[3]
  self-aminoacylation: 7.38
[4]
  self-aminoacylation: 1.3
[5]
  self-aminoacylation: 9.34
[6]
  self-aminoacylation: 1.32

## AAGUUUACUAAUAGUCGCAAU [Fam3.1 aminoacylation ribozyme variant]
[1]
  self-aminoacylation: 1.86
[2]
  self-aminoacylation: 1.42
[3]
  self-aminoacylation: 1.99
[4]
  self-aminoacylation: 1.6
[5]
  self-aminoacylation: 3.51
[6]
  self-aminoacylation: 1.48

## AUUACCCUGGUCAUCGGGUCA [Fam2.1 aminoacylation ribozyme variant]
[1]
  self-aminoacylation: 3.61
[2]
  self-aminoacylation: 6.66
[3]
  self-aminoacylation: 9.71
[4]
  self-aminoacylation: 4.01
[5]
  self-aminoacylation: 22.5
[6]
  self-aminoacylation: 5.33

## CUAUUUGAAACAAUCGGUCUG [Fam1A.1 aminoacylation ribozyme variant]
[1]
  self-aminoacylation: 0.803
[2]
  self-aminoacylation: 0.779
[3]
  self-aminoacylation: 0.463
[4]
  self-aminoacylation: 0.707
[5]
  self-aminoacylation: 0.697
[6]
  self-aminoacylation: 0.815

## AUUCACCUAGGUCAUCGGUUG [Fam2.2 aminoacylation ribozyme variant]
[1]
  self-aminoacylation: 1
[2]
  self-aminoacylation: 1.11
[3]
  self-aminoacylation: 0.932
[4]
  self-aminoacylation: 1.03
[5]
  self-aminoacylation: 1.02
[6]
  self-aminoacylation: 1.01

## AUUACCCAGGUCAUGGAGUGA [Fam2.1 aminoacylation ribozyme variant]
[1]
  self-aminoacylation: 2.85
[2]
  self-aminoacylation: 4.67
[3]
  self-aminoacylation: 4.7
[4]
  self-aminoacylation: 3.01
[5]
  self-aminoacylation: 8.43
[6]
  self-aminoacylation: 3.83

## AAGUUUGCUAAUAAUCGCAAC [Fam3.1 aminoacylation ribozyme variant]
[1]
  self-aminoacylation: 0.8
[2]
  self-aminoacylation: 0.773
[3]
  self-aminoacylation: 1.18
[4]
  self-aminoacylation: 0.975
[5]
  self-aminoacylation: 0.842
[6]
  self-aminoacylation: 1.06
